US7364887B2, “Use of PAK inhibitor for the treatment of a joint disease” (Sanofi-Aventis Deutschland GmbH, priority 2003, dated 2008)

What was measured:
Assay type in all cases: cell-based, human
[1] = system: IL-1β induced expression of MMP13 in SW1353 cells; assay: MMP13 protein in supernatants by ELISA after overexpression of PAK1-ID in SW1353 cells; settings: SW1353 cells transfected with pCEP4_PAK1-ID vs void vector, ELISA of supernatant
Procedure: The PAK1 inhibitory domain was subcloned into the pCEP4 vector and transfected into SW1353 cells. Where indicated, IL-1β was used as a stimulus at a concentration of 10 ng/ml for 24 h. Supernatants were collected and the amount of MMP13 protein was determined by ELISA. Values are shown in arbitrary units and represent at least 3 independent results ±SD. The chequered column represents the experiments with the vector pCEP4 (void vector) and the black column represents the experiments with the vector pCEP4_PAK1-ID.
(§1) (Kozak sequence is underlined, hemagglutinin (HA) tag is in bold) and 5′-[…]-3′(SEQ ID NO: 12) (MWG, Biotech AG, Germany). […]
(§2) Cultures of human SW1353 chondrosarcoma were grown in Dulbecco's modified Eagles's medium (DMEM) containing 10% fetal calf serum (FCS) and penicillin/streptomycin (37° C., 5% CO2). […] The transfection efficiency was examined with a FACScan (Becton Dickinson Immunocytometry Systems, Inc., Mountain View, Calif., U.S.A.) and on an inverted fluorescence microscope. […]
(§3) Human embryonic kidney (HEK) 293 were maintained in Dulbecco's modified Eagle's medium supplemented with 10% fetal calf serum. […] Culture supernatant were removed and expression of IL-8 (R&D Systems, Inc., Minneapolis, Minn., U.S.A.), PGE2 (SpiBiom Inc.), and MMP-13 (Amersham Pharmacia Biotech, Inc.) was monitored by ELISA according to the procedure supplied by the manufacturer. […]

[2] = system: IL-1β induced expression of PGE2 in SW1353 cells; assay: PGE2 in supernatants by ELISA after overexpression of PAK1-ID in SW1353 cells; settings: SW1353 cells transfected with pCEP4_PAK1-ID vs void vector; IL-1β and TNFα both 10 ng/ml for 24 h; ELISA of supernatant
Procedure: The PAK1 inhibitory domain was subcloned into the pCEP4 vector and transfected into SW1353 cells. Cells were stimulated with a combination of IL-1β and TNFα both at a concentration of 10 ng/ml for 24 h. Supernatants were collected and the amount of MMP13 protein was determined by ELISA. Values in arbitrary units represent the mean of two experiments. The punctured column represents the experiments with no vector plus IL1β and TNFα. The chequered column represents the experiments with the vector pCEP4 (void vector) plus IL1β and TNFα. The black column represents the experiments with the vector pCEP4_PAK1-ID plus IL1β and TNFα. […]
as §2, §3

[3] = system: IL-1β induced expression of IL-8 in HEK293 cells; assay: IL-8 protein in supernatants by ELISA after transient transfection of PAK1-ID in HEK293 cells; settings: HEK293 cells transiently transfected with pCDNA3.1_PAK1-ID vs void vector; IL-1β 10 ng/ml, time course; ELISA of supernatant
Procedure: The PAK1 inhibitory domain subcloned into the pCDNA3.1 vector was transiently transfected into HEK293 cells. Cells were stimulated with IL-1β at a concentration of 10 ng/ml for the indicated time periods. Supernatants were collected and the amount of IL-8 protein was determined by ELISA. Values in arbitrary units represent the mean of two experiments. The circles represents the experiments with the vector pCDNA3.1_PAK1-ID plus IL-1β and the squares represent the experiments with the vector pCDNA3.1 (void vector) plus IL-1β.
as §1
Human embryonic kidney (HEK) 293 were maintained in Dulbecco's modified Eagle's medium supplemented with 10% fetal calf serum. […] Culture supernatant were removed and expression of IL-8 (R&D Systems, Inc., Minneapolis, Minn., U.S.A.), PGE2 (SpiBiom Inc.), and MMP-13 (Amersham Pharmacia Biotech, Inc.) was monitored by ELISA according to the procedure supplied by the manufacturer.
For the analysis of MMP13, IL-8 and PGE2 protein levels, supernatants of cell cultures were determined by ELISA for MMP13 (Amersham Pharmacia Biotech, Inc.), IL-8 (R&D Systems, Inc. Minneapolis, Minn., U.S.A.) and PGE2 (SpiBio) as described by the supplier. […]

B1: PAK1-ID: Autoinhibitory domain of PAK1, residues 83 to 149 (SEQ ID NO: 6), HA-tagged, overexpressed from pCEP4 or pcDNA3.1 vector in cells (protein, listed as Homo sapiens)
chain: HTIHVGFDAVTGEFTGMPEQWARLLQTSNITKSEQKKNPQAVLDVLEFYNSKKTSNSQKYMSFTDKS
modifications: HA tag
inhibition of the IL-1β-induced expression of MMP13 ([1]; IL-1β 10 ng/ml for 24 h): ~55% | inhibition of basal MMP13 secretion in non-stimulated cells ([1]; non-stimulated (no IL-1β)): > 80% | inhibition of IL-1β induced expression of PGE2 [2]: more than 50% | effect on IL-1β induced expression of IL-8 [3]: represses the IL-1β induced expression of IL-8
